Test results reported in the RNAGym collection of RNA variant scans (doi:10.1073/pnas.2313332121).

B1: TPR t1 (parent)
chain: GACCAAUCUGCCCUCAGAGCUCGAGAACAUCUUCGGAUGCAGAGGAGGCAGGCUUCGGUGGCGCGAUAGCGCCAACGUCCUCAACCUCCAAUGCAUCCCACCACAUGAUGAUGCCUGAAGAGCCUUGGUUUUUUG

Variants of: B1
Experiment: polymerase ribozyme fitness, log enrichment relative to wild type (log ratio); higher = more active; in vitro selection for triplet polymerase activity
Summary of the method: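 Mutant libraries for each subunit of a heterodimeric triplet polymerase ribozyme were made by PCR and then transcribed. Each library underwent one round of in vitro selection in triplicate: annealing with a biotinylated primer, the partner subunit and triplets, frozen incubation at −7 °C, gel excision of extended constructs, streptavidin-bead capture and RT-PCR. Input and output libraries were Illumina-sequenced, and only genotypes with ≥10 input reads and ≥1 read per output were kept. Fitness is the logarithm, base 2, of genotype enrichment over wild-type enrichment, computed from inverse-variance-weighted replicate averages.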

Row | Variant | polymerase ribozyme fitness (log ratio)
1 | A5C U92A C101U C115A U133G | -4.61
2 | A5U A43G G44A G52C C124U G128U | -4.6
3 | A5G C28A U33G U55A C73U A100C C124A | -5.92
4 | A5U A37G | 0.0705
5 | A5G A84U U112G | -0.141
6 | A5G G17U A18G A100C A121G C124G | -3.51
7 | A5G U9A A27G C53U U126A U133A | -3.09
8 | A5U A84U C97U | -1.7
9 | A5U A43G C124A | -0.815
10 | A5G U32C C70U G93A | -2.13
11 | A5G C13U G44U U96G U133A | -2.01
12 | A5G U38G G39C | -3.2
13 | A5G C13G G39A G51A U112C | -2.65
14 | A5C G117U | -3.58
15 | A5U A6C C49G U54A | -0.438
16 | A5C U7C G69U C85A U92C | -3.85
17 | A5U A6C C8G G47A G113C | -2.19
18 | A5U A46U U59C A90U C123A | -2.16
19 | A5C U96A A121C | 0.399
20 | A5G C13U C70U C94G | -1.73
21 | A5G C72A C73U U81G U106G A118U A121C | -5.16

Row | Variant | polymerase ribozyme fitness (log ratio)
22 | A5G G58A G63A | -0.764
23 | A5U A103C G110A G113C | -5.8
24 | A5G G63A | -1.41
25 | A5G A18U A103U C114A G120U | -3.91
26 | A5G U78C C80A | -2.8
27 | A5G A50C | -0.262
28 | A5G U59G G63U C73G A111C | -6
29 | A5U A37C G113U | -3.79
30 | A5G C8U G63U C70A C86G | 0.268
31 | A5G A6U G61C A66U | -1.7
32 | A5U A27G G60U | -4.01
33 | A5G A91U | -1.78
34 | A5U A6G A46C C115G | -2.4
35 | A5U A50U G61U C88G | -1
36 | A5U A6C A26G G44A U54C A84C C94U | -4.49
37 | A5G C8G G113U | -1.74
38 | A5G U9C C124U | 1.89
39 | A5G G48U G61A U81A C82A G127C | -1.97
40 | A5U A66C G113U C124A | -4.62
41 | A5G U81A | -0.807
42 | A5U A16C G57C G69A G93A | -6.66

Row | Variant | polymerase ribozyme fitness (log ratio)
43 | A5G C12G G71C A121G | 0.0981
44 | A5G G35A U78A C101U | -3.77
45 | A5G A16C A41G C62U | -2.75
46 | A5G G45U A46C G61A U78G C115U | -2.84
47 | A5G C12G C34U C72A A95C | -5.52
48 | A5G C22G C73G G93U G110A | -6.4
49 | A5U A6U C20U G69A U81A G113A | -2.02
50 | A5G C56U | -0.367
51 | A5U A46U G71C U81A | -4.5
52 | A5G C34G G69U C82G | -2.92
53 | A5G U14A | -1.75
54 | A5U A18C A111C | -2.56
55 | A5G C28G U78A U96C G110U | -0.656
56 | A5G U78A A95C U106G | -3.66
57 | A5G C13U G42U C76A | -2.01
58 | A5G G61A U78A A84C U129A | -1.36
59 | A5G G45U G60A C101G U133G | -3.66
60 | A5U A46U U81A | -2.98
61 | A5G A50U G63A G117A | -6.03
62 | A5G C49U C70U C72U A121U U133G | 0.312
63 | A5G C8U A121C | 1.12

Row | Variant | polymerase ribozyme fitness (log ratio)
64 | A5U | -0.135
65 | A5G | -0.0211
66 | A5G C114A | -1.2
67 | A5G G17A | -2.47
68 | A5U A6G G45C G69U A95U | -2.34
69 | A5G A83G G110A | -2.14
70 | A5G G44A G71U A83C C86U | -1.87
71 | A5C U92G | -4.05
72 | A5U A6U U7G C8U G36A A121C | 0.985
73 | A5U A74C G122A | -1.42
74 | A5G U9G U21A C56U A83U | 0.0637
75 | A5U A46C C73A C98U | -1.57
76 | A5U A46C C53U U96G C102U | -4.66
77 | A5G C88A G107A C114U | -3.65
78 | A5U A41C G77A G110A A121C U130A | -5.22
79 | A5G C49G U116G G117C | -3.05
80 | A5G A24G A29C G36C G61A C70U G113A | -5.67
81 | A5G A16U G61U A66C U129A | -3.64
82 | A5G C56A G69A C86A | -3.95
83 | A5U A6C G57U C123U | 0.75
